From the Human Domainome abundance scans (Beltran et al. 2025) come the findings set out here.

± gives the uncertainty stated by the source.

First the molecules themselves.
B1: POU domain, class 5, transcription factor 1, residues 134 to 212; numbered along this chain, Q01860 (parent)
chain: EESQDIKALQKELEQFAKLLKQKRITLGYTQADVGLTLGVLFGKVFSQTTICRFEALQLSFKNMCKLRPLLQKWVEEAD

The variants in the data set derive from B1. The experiment in a line: abundance fitness (aPCA) (normalised: wild type 0, dead -1); higher = more abundant; growth selection in yeast, the domain comes from the species named. As to conditions: Homo sapiens.
As to L59N, the abundance fitness is 0.124 ± 0.34. In the case of L59M it was -0.054 ± 0.17. With Q22S, the abundance fitness is 0.268 ± 0.14. Regarding Q22M, the abundance fitness is -0.189 ± 0.45. For the variant L36H, the abundance fitness turned out to be 0.362 ± 0.15.

As for L36P, the abundance fitness was -0.6 ± 0.26. On to L36K, for which the abundance fitness was 0.087 ± 0.15. For the variant L36W, the abundance fitness turned out to be 0.249 ± 0.077. Take L36D: the abundance fitness amounted to 0.112 ± 0.1. In the case of L36E, the abundance fitness was 0.155 ± 0.094. As to L36T, the abundance fitness is 0.293 ± 0.096. In the case of L36G, the abundance fitness was -0.306 ± 0.085. With T26N, the abundance fitness was determined as 0.268 ± 0.45. Take T26Q: the abundance fitness was -0.123 ± 0.39. Regarding T26L, the abundance fitness worked out at 0.004 ± 0.25. In the case of T26A it was 0.202 ± 0.15; in that of T26M, -0.256 ± 0.42.

F54V: the abundance fitness was -0.625 ± 0.18. For the variant F54G, the abundance fitness is -0.695 ± 0.14. Consider F54C, for which the abundance fitness is -0.5 ± 0.38. For the variant F54S, the abundance fitness is -0.562 ± 0.24. On to F54E, for which the abundance fitness was -0.828 ± 0.33. For the variant F54T, the abundance fitness was 0.078 ± 0.29. Take P69M: the abundance fitness was -0.662 ± 0.21. For the variant P69T, the abundance fitness was -0.652 ± 0.2.

For P69H, the abundance fitness is -0.208 ± 0.28.

As for P69K, the abundance fitness was -0.304 ± 0.18.

With R53H, the abundance fitness came out at 0.118 ± 0.26. As for R53T, the abundance fitness is -0.356 ± 0.38.

As to R53D, the abundance fitness is -0.027 ± 0.23. In the case of R53P it was -0.287 ± 0.46. Take R53S: the abundance fitness is -0.467 ± 0.34. Consider R53K, for which the abundance fitness came out at 0.029 ± 0.41. In the case of R53A it was -0.06 ± 0.21; in that of R53E, -0.078 ± 0.16.

Take E55G: the abundance fitness is -0.66 ± 0.15. With E55W, the abundance fitness is -0.555 ± 0.26. Take E55K: the abundance fitness is -0.495 ± 0.26. With L13A, the abundance fitness was -0.526 ± 0.22. Regarding L13Q, the abundance fitness was -0.641 ± 0.34. In the case of L13Y it was -0.527 ± 0.24; in that of L13F, -0.149 ± 0.14; in that of L13E, -0.484 ± 0.39. L13H: the abundance fitness is -0.176 ± 0.19.

As to L13P, the abundance fitness is -0.306 ± 0.45. As for Q58E, the abundance fitness turned out to be 0.126 ± 0.11. Consider Q58R, for which the abundance fitness was -0.31 ± 0.12. As to Q58T, the abundance fitness was -0.097 ± 0.2.

As for T30A, the abundance fitness is -0.667 ± 0.18. As for T30M, the abundance fitness is -0.526 ± 0.25. In the case of I6P it was -0.015 ± 0.14; in that of I6G, -0.122 ± 0.077; in that of I6L, -0.143 ± 0.1. As to I6D, the abundance fitness is 0.122 ± 0.16. As for I6F, the abundance fitness came out at 0.052 ± 0.27. As to I6K, the abundance fitness amounted to 0.359 ± 0.12. In the case of I6W it was -0.351 ± 0.17. Take M64V: the abundance fitness was -0.675 ± 0.15. On to M64D, for which the abundance fitness is -0.816 ± 0.32.

M64R: the abundance fitness is -0.871 ± 0.15. M64G: the abundance fitness was -0.621 ± 0.12. In the case of M64Q it was -0.802 ± 0.23; in that of Q4K, -0.011 ± 0.16.

Turning to Q4A, the abundance fitness is -0.097 ± 0.081. V34I: the abundance fitness is -0.031 ± 0.35. As to V34L, the abundance fitness is -0.258 ± 0.21.

As to V34G, the abundance fitness is -0.518 ± 0.17. Take V34Q: the abundance fitness is -0.231 ± 0.32.

For A8T, the abundance fitness was determined as 0.429 ± 0.3.

Turning to A8S, the abundance fitness was 0.171 ± 0.21.

For the variant A8V, the abundance fitness was determined as 0.083 ± 0.25. In the case of D5N it was 0.092 ± 0.41.

With D5C, the abundance fitness came to 0.057 ± 0.35.

Take D5G: the abundance fitness was -0.331 ± 0.2.

Turning to A78V, the abundance fitness was 0.216 ± 0.092.

For A78Q, the abundance fitness came out at 0.053 ± 0.27. In the case of A78S, the abundance fitness is -0.13 ± 0.16. Q15L: the abundance fitness was -0.259 ± 0.1.

Take Q15H: the abundance fitness was -0.27 ± 0.3. In the case of Q15W it was -0.442 ± 0.13.

With Q15D, the abundance fitness was determined as 0.089 ± 0.18. With Q15S, the abundance fitness was -0.094 ± 0.12. Q15M: the abundance fitness was -0.184 ± 0.17. In the case of Q15R it was -0.181 ± 0.083. Consider E76L, for which the abundance fitness is -0.368 ± 0.15. As for E76Q, the abundance fitness is -0.173 ± 0.26. In the case of E76W, the abundance fitness is -0.425 ± 0.19.

In the case of E76H, the abundance fitness is -0.032 ± 0.32. For the variant S3L, the abundance fitness came out at 0.163 ± 0.38. As to S3G, the abundance fitness is 0.131 ± 0.17. As for A56Q, the abundance fitness was 0.059 ± 0.13. In the case of A56E it was 0.067 ± 0.09; in that of A56W, -0.812 ± 0.23. As for A56C, the abundance fitness was -0.098 ± 0.19. For the variant A56K, the abundance fitness is -0.197 ± 0.18. With A56N, the abundance fitness was 0.067 ± 0.28. On to L70V, for which the abundance fitness is -0.406 ± 0.16.

For the variant L70Y, the abundance fitness came to 0.262 ± 0.17. Consider L70R, for which the abundance fitness is -0.653 ± 0.21. In the case of L41E it was -0.224 ± 0.21; in that of L41W, 0.046 ± 0.14.

With L41R, the abundance fitness is -0.345 ± 0.15. Consider L57K, for which the abundance fitness was -0.45 ± 0.28.

Consider L57C, for which the abundance fitness is 0.035 ± 0.18. In the case of L57D it was -0.509 ± 0.34. In the case of L57T it was -0.344 ± 0.29. In the case of L57E, the abundance fitness was -0.694 ± 0.4. As for L57N, the abundance fitness was 0.261 ± 0.34. Turning to L57G, the abundance fitness came out at 0.094 ± 0.078. Turning to K21P, the abundance fitness was -0.353 ± 0.3. Regarding K21Q, the abundance fitness was -0.2 ± 0.27.

As to K21S, the abundance fitness is -0.189 ± 0.14.

Regarding K21V, the abundance fitness was -0.373 ± 0.28. In the case of K7M, the abundance fitness is -0.319 ± 0.12. For the variant K7F, the abundance fitness was -0.257 ± 0.13.

Regarding K7S, the abundance fitness was -0.05 ± 0.063. In the case of K7C it was -0.132 ± 0.086; in that of N63F, -0.2 ± 0.43; in that of N63H, -0.183 ± 0.31. Consider S60Q, for which the abundance fitness is -0.415 ± 0.36. Consider S60A, for which the abundance fitness is -0.273 ± 0.14. Consider S60P, for which the abundance fitness is 0.084 ± 0.15. In the case of L9P it was 0.195 ± 0.12; in that of L9A, -0.066 ± 0.088.

As to L9H, the abundance fitness was -0.215 ± 0.32.

Regarding L9E, the abundance fitness worked out at 0.017 ± 0.089.

In the case of L9R, the abundance fitness was -0.023 ± 0.067. With L9D, the abundance fitness was -0.385 ± 0.2. Regarding L9T, the abundance fitness is -0.171 ± 0.18. In the case of E2G it was 0.211 ± 0.26; in that of T50Q, -0.411 ± 0.34. Take T50V: the abundance fitness came to 0.015 ± 0.087. As for T50L, the abundance fitness was -0.626 ± 0.32.

As to T50G, the abundance fitness was -0.601 ± 0.13. Turning to T50M, the abundance fitness was -0.27 ± 0.29. In the case of T50H it was 0.017 ± 0.4; in that of K11Y, 0.067 ± 0.21; in that of K11C, -0.369 ± 0.27. With K11N, the abundance fitness amounted to 0.048 ± 0.28. On to K11P, for which the abundance fitness was 0.23 ± 0.39. In the case of K11W it was -0.198 ± 0.13.

Take K11L: the abundance fitness was -0.153 ± 0.1.

With C65S, the abundance fitness is -0.393 ± 0.15.

Consider C65Y, for which the abundance fitness was -0.449 ± 0.32. In the case of C65R it was -0.18 ± 0.073.

Take C65Q: the abundance fitness stood at 0.074 ± 0.13. C65M: the abundance fitness is -0.04 ± 0.14.

C65A: the abundance fitness was -0.381 ± 0.13. In the case of C65T it was -0.403 ± 0.23. For the variant C65I, the abundance fitness was found to be 0.246 ± 0.2. In the case of C65W it was -0.289 ± 0.12; in that of T37S, 0.153 ± 0.087; in that of T37I, -0.093 ± 0.18. With T37L, the abundance fitness is -0.283 ± 0.12.

In the case of T37C, the abundance fitness is -0.733 ± 0.34.

Turning to T37K, the abundance fitness is 0.082 ± 0.16.

For the variant T37Q, the abundance fitness turned out to be 0.394 ± 0.097.

On to T37D, for which the abundance fitness was found to be 0.412 ± 0.14. Turning to K66N, the abundance fitness came to 0.209 ± 0.32.

As to K66Q, the abundance fitness was -0.051 ± 0.19. In the case of K66F it was 0.04 ± 0.28; in that of K66P, -0.51 ± 0.27. In the case of K66T, the abundance fitness was -0.187 ± 0.16. In the case of K66M it was 0.113 ± 0.12; in that of K66G, -0.185 ± 0.091. In the case of K66S it was 0.003 ± 0.12. K66V: the abundance fitness is -0.365 ± 0.15.
